What follows are sequences tested against FGFR3 (UniProt P22607) (assay: phosphorylation enrichment, bacterial display (enrichment ratio); higher = better substrate or ligand; peptides without Tyr show the background).
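Further: 11-residue human phosphosite peptides and single-mutation variants displayed on the E. coli surface, counted by deep sequencing, each peptide's frequency after selection divided by its frequency in the unselected input library; frequency after pTyr selection over input frequency; kinase dosed for 20-30% of maximal phosphorylation in three min.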

FGFR3, sequence (P22607 whole entry, looked up): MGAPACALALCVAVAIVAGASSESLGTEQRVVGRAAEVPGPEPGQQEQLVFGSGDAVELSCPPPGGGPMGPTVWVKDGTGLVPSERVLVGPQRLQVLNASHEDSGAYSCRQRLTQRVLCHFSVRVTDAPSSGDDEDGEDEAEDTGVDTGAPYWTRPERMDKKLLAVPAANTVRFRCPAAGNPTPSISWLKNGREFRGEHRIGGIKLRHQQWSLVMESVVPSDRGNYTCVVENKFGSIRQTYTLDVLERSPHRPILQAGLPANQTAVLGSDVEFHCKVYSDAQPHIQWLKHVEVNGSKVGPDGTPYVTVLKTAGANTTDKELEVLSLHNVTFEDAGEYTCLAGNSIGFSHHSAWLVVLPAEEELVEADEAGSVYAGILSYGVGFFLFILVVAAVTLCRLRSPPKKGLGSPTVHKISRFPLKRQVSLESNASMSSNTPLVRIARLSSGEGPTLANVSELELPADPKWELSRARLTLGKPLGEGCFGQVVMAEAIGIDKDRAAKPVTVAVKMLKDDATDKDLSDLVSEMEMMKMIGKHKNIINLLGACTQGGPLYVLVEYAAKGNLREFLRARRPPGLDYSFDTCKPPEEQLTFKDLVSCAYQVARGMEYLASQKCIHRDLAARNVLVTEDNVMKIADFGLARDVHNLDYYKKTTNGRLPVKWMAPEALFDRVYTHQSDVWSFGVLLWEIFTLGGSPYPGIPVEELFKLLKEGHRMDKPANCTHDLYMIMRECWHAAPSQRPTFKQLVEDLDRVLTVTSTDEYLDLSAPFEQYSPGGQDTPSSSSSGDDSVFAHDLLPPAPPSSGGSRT

Row | Sequence | phosphorylation enrichment
1 | PESIMYRKFTT [NTRK3_Y744] | 0.667
2 | YLGRDYLETLM [DUS3L_Y610] | 2.29
3 | GYSRHCEDGYP [CTNND1_Y217_Y217C] | 0.556
4 | KVWGIYDCQQP [CYP3A7_Y75] | 0.772
5 | HNLDYYKQTTN [FGFR3_Y648_K650Q] | 2.61
6 | LIHLHYIRRDF [BBS4_Y43_K46R_YF] | 0.732
7 | PLQKTYNFNML [SLC4A1_Y553_V557M_YF] | 0.809
8 | YGSGNYNDFGN [HNRNPA2B1_Y300] | 0.654
9 | DGMADYSDPSF [CDC5L_Y459_YF] | 1
10 | NELTYYCCKKD [CD59_Y87] | 3.92
11 | IRKAEYPFSSE [ATP2C1_Y452] | 0.424
12 | QMVGMYAFSYM [AVPR2_Y124_S126F] | 1.15
13 | MLEVPYVDRNS [F10_Y384] | 0.643
14 | LLQKTYNYNVL [SLC4A1_Y553_P548L] | 1.06
15 | RLSARYFQGDL [PDK3_Y337_Y334S] | 0.492
16 | CCNHPYLINGA [CHD7_Y1256] | 0.552
17 | SSFSGYIMMPN [LEF1_Y114_YF] | 1.39
18 | LSAPEYGPKLK [TBC1D14_Y46] | 0.565
19 | IQVNAYFSPIH [ADSL_Y432_D430N] | 0.795
20 | ETDSEYVKLAK [C7orf57_Y70] | 0.478
21 | CEHRGYLFLAI [TEK_Y897_YF] | 0.628
22 | QQLVAYYSKHA [SRC_Y232] | 1.14
23 | LADMNYVHCDL [EPHB2_Y742_R745C] | 1.09
24 | QDDYSYPSRQM [LDLR_Y847_G844D] | 1.66
25 | SEKISYVYMKR [SSX7_Y48_L43S] | 0.748
26 | TTSQLYDAVPI [PDPK1_Y9] | 0.786
27 | SLGSPYGQPPR [PDLIM4_Y137] | 0.526
28 | IENKLCGMSDP [RET_Y1062_Y1062C] | 0.774
29 | VNYGAYINNFK [GLB1_Y488_D491N] | 0.513

What follows are sequences tested on Fer (mouse) in the same assay as above.

Row | Sequence | phosphorylation enrichment
30 | PESIMYRKFTT [NTRK3_Y744] | 0.485
31 | YLGRDYLETLM [DUS3L_Y610] | 0.637
32 | GYSRHCEDGYP [CTNND1_Y217_Y217C] | 0.465
33 | KVWGIYDCQQP [CYP3A7_Y75] | 2.48
34 | HNLDYYKQTTN [FGFR3_Y648_K650Q] | 0.585
35 | LIHLHYIRRDF [BBS4_Y43_K46R_YF] | 0.564
36 | PLQKTYNFNML [SLC4A1_Y553_V557M_YF] | 0.665
37 | YGSGNYNDFGN [HNRNPA2B1_Y300] | 0.424
38 | DGMADYSDPSF [CDC5L_Y459_YF] | 0.592
39 | NELTYYCCKKD [CD59_Y87] | 3.67
40 | IRKAEYPFSSE [ATP2C1_Y452] | 0.366
41 | QMVGMYAFSYM [AVPR2_Y124_S126F] | 4.47
42 | MLEVPYVDRNS [F10_Y384] | 0.434
43 | LLQKTYNYNVL [SLC4A1_Y553_P548L] | 0.496
44 | RLSARYFQGDL [PDK3_Y337_Y334S] | 0.312
45 | CCNHPYLINGA [CHD7_Y1256] | 0.419
46 | SSFSGYIMMPN [LEF1_Y114_YF] | 0.401
47 | LSAPEYGPKLK [TBC1D14_Y46] | 0.458
48 | IQVNAYFSPIH [ADSL_Y432_D430N] | 0.548
49 | ETDSEYVKLAK [C7orf57_Y70] | 0.335
50 | CEHRGYLFLAI [TEK_Y897_YF] | 0.508
51 | QQLVAYYSKHA [SRC_Y232] | 0.559
52 | LADMNYVHCDL [EPHB2_Y742_R745C] | 0.535
53 | QDDYSYPSRQM [LDLR_Y847_G844D] | 1.66
54 | SEKISYVYMKR [SSX7_Y48_L43S] | 0.387
55 | TTSQLYDAVPI [PDPK1_Y9] | 19.6
56 | SLGSPYGQPPR [PDLIM4_Y137] | 0.356
57 | IENKLCGMSDP [RET_Y1062_Y1062C] | 0.536
58 | VNYGAYINNFK [GLB1_Y488_D491N] | 0.423

Each sequence was assayed against Fes (UniProt P07332) in the same assay as above.
Fes, sequence (P07332 whole entry, looked up): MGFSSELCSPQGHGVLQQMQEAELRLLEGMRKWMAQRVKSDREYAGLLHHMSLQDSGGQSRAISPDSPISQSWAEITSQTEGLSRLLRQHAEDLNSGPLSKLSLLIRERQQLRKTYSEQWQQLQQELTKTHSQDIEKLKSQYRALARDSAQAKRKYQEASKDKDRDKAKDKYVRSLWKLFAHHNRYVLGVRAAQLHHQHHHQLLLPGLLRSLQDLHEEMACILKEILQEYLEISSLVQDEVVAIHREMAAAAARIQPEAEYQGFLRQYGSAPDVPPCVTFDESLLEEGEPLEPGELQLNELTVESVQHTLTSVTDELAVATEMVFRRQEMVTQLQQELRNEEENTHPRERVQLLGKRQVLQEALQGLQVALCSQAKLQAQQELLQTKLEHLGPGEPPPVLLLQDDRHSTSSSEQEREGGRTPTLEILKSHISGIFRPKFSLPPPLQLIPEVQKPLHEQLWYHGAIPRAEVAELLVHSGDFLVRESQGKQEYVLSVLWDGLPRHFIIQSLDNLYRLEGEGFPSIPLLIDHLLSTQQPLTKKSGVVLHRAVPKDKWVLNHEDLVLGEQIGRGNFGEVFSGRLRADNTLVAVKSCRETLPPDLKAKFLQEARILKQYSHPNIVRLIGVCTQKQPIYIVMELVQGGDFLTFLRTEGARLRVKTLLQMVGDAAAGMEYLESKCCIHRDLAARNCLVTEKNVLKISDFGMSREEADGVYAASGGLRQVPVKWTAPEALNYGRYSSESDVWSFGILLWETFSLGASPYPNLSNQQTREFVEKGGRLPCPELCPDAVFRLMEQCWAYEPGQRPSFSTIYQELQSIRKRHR

Row | Sequence | phosphorylation enrichment
59 | PESIMYRKFTT [NTRK3_Y744] | 0.789
60 | YLGRDYLETLM [DUS3L_Y610] | 1.03
61 | GYSRHCEDGYP [CTNND1_Y217_Y217C] | 0.972
62 | KVWGIYDCQQP [CYP3A7_Y75] | 1.61
63 | HNLDYYKQTTN [FGFR3_Y648_K650Q] | 1.01
64 | LIHLHYIRRDF [BBS4_Y43_K46R_YF] | 1.02
65 | PLQKTYNFNML [SLC4A1_Y553_V557M_YF] | 1.17
66 | YGSGNYNDFGN [HNRNPA2B1_Y300] | 1.08
67 | DGMADYSDPSF [CDC5L_Y459_YF] | 1.2
68 | NELTYYCCKKD [CD59_Y87] | 1.3
69 | IRKAEYPFSSE [ATP2C1_Y452] | 0.758
70 | QMVGMYAFSYM [AVPR2_Y124_S126F] | 1.86
71 | MLEVPYVDRNS [F10_Y384] | 0.89
72 | LLQKTYNYNVL [SLC4A1_Y553_P548L] | 1.52
73 | RLSARYFQGDL [PDK3_Y337_Y334S] | 0.684
74 | CCNHPYLINGA [CHD7_Y1256] | 0.851
75 | SSFSGYIMMPN [LEF1_Y114_YF] | 0.934
76 | LSAPEYGPKLK [TBC1D14_Y46] | 0.514
77 | IQVNAYFSPIH [ADSL_Y432_D430N] | 1.29
78 | ETDSEYVKLAK [C7orf57_Y70] | 0.817
79 | CEHRGYLFLAI [TEK_Y897_YF] | 0.906
80 | QQLVAYYSKHA [SRC_Y232] | 1.15
81 | LADMNYVHCDL [EPHB2_Y742_R745C] | 0.97
82 | QDDYSYPSRQM [LDLR_Y847_G844D] | 2.17
83 | SEKISYVYMKR [SSX7_Y48_L43S] | 0.967
84 | TTSQLYDAVPI [PDPK1_Y9] | 1.41
85 | SLGSPYGQPPR [PDLIM4_Y137] | 0.771
86 | IENKLCGMSDP [RET_Y1062_Y1062C] | 1.09
87 | VNYGAYINNFK [GLB1_Y488_D491N] | 0.723

What follows are sequences tested against Fyn (UniProt P06241) in the same assay as above.
Fyn, sequence (P06241 whole entry, looked up): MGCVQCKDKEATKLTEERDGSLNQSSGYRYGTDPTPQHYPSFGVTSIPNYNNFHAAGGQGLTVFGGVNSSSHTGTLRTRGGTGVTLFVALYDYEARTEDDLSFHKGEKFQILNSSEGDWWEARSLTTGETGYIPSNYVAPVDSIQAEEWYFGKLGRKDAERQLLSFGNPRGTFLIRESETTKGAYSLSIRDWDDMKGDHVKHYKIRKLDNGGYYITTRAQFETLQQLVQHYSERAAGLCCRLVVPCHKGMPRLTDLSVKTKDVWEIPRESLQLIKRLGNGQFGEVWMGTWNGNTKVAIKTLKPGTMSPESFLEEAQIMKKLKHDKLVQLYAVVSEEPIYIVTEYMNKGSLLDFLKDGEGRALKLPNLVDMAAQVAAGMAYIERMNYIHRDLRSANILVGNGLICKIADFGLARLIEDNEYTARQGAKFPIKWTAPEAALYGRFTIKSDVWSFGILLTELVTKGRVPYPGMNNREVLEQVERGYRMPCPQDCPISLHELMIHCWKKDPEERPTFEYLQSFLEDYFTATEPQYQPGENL

Row | Sequence | phosphorylation enrichment
88 | PESIMYRKFTT [NTRK3_Y744] | 0.67
89 | YLGRDYLETLM [DUS3L_Y610] | 0.514
90 | GYSRHCEDGYP [CTNND1_Y217_Y217C] | 0.44
91 | KVWGIYDCQQP [CYP3A7_Y75] | 7.28
92 | HNLDYYKQTTN [FGFR3_Y648_K650Q] | 0.714
93 | LIHLHYIRRDF [BBS4_Y43_K46R_YF] | 0.503
94 | PLQKTYNFNML [SLC4A1_Y553_V557M_YF] | 0.493
95 | YGSGNYNDFGN [HNRNPA2B1_Y300] | 0.668
96 | DGMADYSDPSF [CDC5L_Y459_YF] | 0.488
97 | NELTYYCCKKD [CD59_Y87] | 2.92
98 | IRKAEYPFSSE [ATP2C1_Y452] | 0.363
99 | QMVGMYAFSYM [AVPR2_Y124_S126F] | 1.55
100 | MLEVPYVDRNS [F10_Y384] | 0.382
101 | LLQKTYNYNVL [SLC4A1_Y553_P548L] | 1.07
102 | RLSARYFQGDL [PDK3_Y337_Y334S] | 0.399
103 | CCNHPYLINGA [CHD7_Y1256] | 0.57
104 | SSFSGYIMMPN [LEF1_Y114_YF] | 0.534
105 | LSAPEYGPKLK [TBC1D14_Y46] | 0.451
106 | IQVNAYFSPIH [ADSL_Y432_D430N] | 0.431
107 | ETDSEYVKLAK [C7orf57_Y70] | 0.433
108 | CEHRGYLFLAI [TEK_Y897_YF] | 0.443
109 | QQLVAYYSKHA [SRC_Y232] | 0.723
110 | LADMNYVHCDL [EPHB2_Y742_R745C] | 0.57
111 | QDDYSYPSRQM [LDLR_Y847_G844D] | 1.46
112 | SEKISYVYMKR [SSX7_Y48_L43S] | 0.469
113 | TTSQLYDAVPI [PDPK1_Y9] | 10.2
114 | SLGSPYGQPPR [PDLIM4_Y137] | 0.553
115 | IENKLCGMSDP [RET_Y1062_Y1062C] | 0.522
116 | VNYGAYINNFK [GLB1_Y488_D491N] | 0.76

— the supplement of paper PMC10065799, “High-throughput profiling of sequence recognition by tyrosine kinases and SH2 domains using bacterial peptide display” (eLife, 2023)
